In paper PMC11333002, “Molecular dynamics simulations reveal how vinculin refolds partially unfolded talin rod helices to stabilize them against mechanical force” (PLOS Computational Biology, 2024):

Experiments:
[1] = tested on: Vinculin-null mouse embryonic fibroblasts (MEF); experiment: Adhesion localization, vinculin/talin intensity (immunostaining, confocal); assay type: cell-based; settings: full-length vinculin; vs WT vinculin; n = 22 (WT) and 23 (Q19S) cells
Procedure: Vinculin-null mouse embryonic fibroblasts (MEF) were a kind gift from Prof. Carsten Grashoff (University of Münster) and have been previously described. Cells were maintained at 10–80% confluency in high-glucose Dulbecco’s modified Eagle medium with GlutaMax (10566016, Thermo Fisher Scientific) supplemented with 10% fetal bovine serum (Gibco) in a humidified 37°C, 5% CO2 incubator. For FRAP experiments, Vin-/- MEF cells were adapted to FluoroBrite DMEM medium (Thermo Fisher Scientific) supplemented with 10% fetal bovine serum and 1% GlutaMax for a minimum of 48 hours.
mEmerald-Vinculin-N-21 was a gift from Michael Davidson (Addgene plasmid # 54304; http://n2t.net/addgene:54304; RRID:Addgene_54304). To restore the wildtype human vinculin sequence, L234V backmutation was introduced to all vinculin constructs. Q19S mutation was introduced by GenScript cloning service. All plasmid constructs were authenticated by sequencing. Vin-/- MEF cells were transfected with the Neon transfection system (Thermo Fisher Scientific). […]
For adhesion intensity analysis, immunostained cells were imaged using a Nikon Eclipse Ti2-E inverted microscope equipped with A1R+ laser scanning confocal unit (Nikon) and Nikon CFI Plan Apo IR SR 60x WI (NA 1.27) objective. […] Talin and vinculin intensities in adhesion sites were analyzed using Fiji distribution of ImageJ 1.53t. […]

[2] = Circular dichroism thermal denaturation; assay type: physicochemical; settings: 0.45 mg/mL protein, PBS pH 7.4, 222 nm, 20–90°C
Procedure: The VD1 domain of mouse vinculin (mVD1) was obtained as a codon-optimized synthetic gene in pET151 (GeneArt). The Q19S point mutation was introduced by site-directed mutagenesis and the sequence was verified.
Proteins were purified by nickel-affinity chromatography, followed by anion exchange chromatography. Briefly, cells were thawed, supplemented with 1 mM PMSF and 0.2% v/v Triton X-100 and lysed by sonication. Cell debris were removed by centrifugation and the supernatant was filtered and loaded onto a 5 mL HisTrap HP column (Cytiva) using an AKTA Start (GE Healthcare). The column was washed with buffer containing 50 mM Tris-HCl pH 8, 600 mM NaCl, 30 mM imidazole, 4 mM MgCl2, 4 mM ATP, 5% v/v glycerol, 0.2% v/v Triton X-100 and bound protein was eluted across a 75 mL linear gradient of 0–300 mM Imidazole. Fractions containing mVD1 were pooled, supplemented with AcTEV protease (Invitrogen) to remove the His-Tag and dialyzed against 20 mM Tris-HCl pH 8, 50 mM NaCl. Protein was loaded onto a 5 mL HiTrap Q (Cytiva), eluted across a 75 mL linear gradient of 50–750 mM NaCl, dialyzed against phosphate buffered saline (PBS) pH 7.4, snap-frozen in liquid nitrogen and stored at -80°C.
Circular dichroism was performed using a JASCO J-715 spectropolarimeter with 0.45 mg/mL protein samples in PBS pH 7.4. […]

[3] = Size exclusion chromatography, oligomeric state; assay type: physicochemical; settings: 100 μL at 100 μM, Superdex S200 Increase 10/300, PBS pH 7.4 with 5 mM DTT, 280 nm
Procedure: Samples of 100 μL protein at 100 μM protein concentration were injected onto a Superdex G-200 increase 10/300 (GE Healthcare) at 0.75 mL/min in PBS pH 7.4 (supplemented with 5 mM DTT) using an AKTA Pure (GE Healthcare), monitoring absorbance at 280 nm.

[4] = biological target: mouse talin1 R1 VBS (H4) peptide; experiment: Fluorescence polarisation binding of VD1 to VBS peptide; settings: fluorescein-labelled talin1 H4 peptide 700 nM, 2-fold serial dilution of protein, 25°C, triplicate, one-site total binding
Procedure: The mouse talin1 R1 VBS (H4) peptide (C-[…]) was synthesized by GLBiochem (Shanghai) with a non-native, N-terminal cysteine residue. The peptide was coupled with a maleimide-fluorescein dye (Thermo Fisher Scientific) following the manufacturers protocol. Assays were performed in triplicate with a 2-fold serial dilution of protein, with VBS peptide at 700 nM. Fluorescence polarization was measured using a CLARIOstar plate reader (BMGLabTech) at 25°C (excitation: 482 ± 8 nm; emission: 530 ± 20 nm). Data were analyzed using GraphPad Prism 8 software and Kd values were generated using the one-site total binding equation.

[5] = tested on: talin1 H12 R3; experiment: Biosensor analysis (biolayer interferometry, Octet RED384); assay type: binding; settings: immobilized biotinylated H12 R3, VD1 16 μM to 15.6 nM, 28°C, pH 7.4, association 600 s, dissociation 1200 s, global fit
Procedure: Solid-phase synthesized talin1 H12 R3 (C-[…]) with free N-terminal cysteine was labelled with maleimide-PEG2-biotin (Thermo Fisher Scientific A39261). Lyophilized peptide was dissolved in PBS pH 7.4 and reduced at 100 μM peptide concentration with 250 μM TCEP in PBS supplemented with 0.25% Triton-X100 for 10 min at RT. Maleimide-PEG2-biotin was added at 5-fold molar excess (500 μM) and incubation continued for 2 hours at RT, mixing at 30 rpm. The reaction was quenched with β-mercaptoethanol added at 5-fold molar excess over maleimide-PEG2-biotin (2.5 mM) for 20 min at RT. Biotin-labelled peptide was purified using a PD10 desalting column (G25 resin, Cytiva Life Sciences) equilibrated with PBS. Elution fractions containing biotinylated peptide were identified using PageBlue-staining (Thermo Fisher Scientific) of glutaraldehyde-fixed (5%, 2 hours) Bolt BisTris Plus 4–12% SDS-PAGE gels (Thermo Fisher Scientific). The concentration of pooled elution fractions was determined using Pierce BCA microplate assay (Thermo Fisher Scientific) measured with Victor Nivo at 562 nm (PerkinElmer). Aliquoted peptide was flash-frozen with liquid nitrogen and stored at -80°C.
The binding and dissociation kinetics of recombinant WT and Q19S vinculin VD1 to talin1 H12 R3 were determined using ForteBio Octet RED384. […]

B1: Q19S vinculin: full-length mEmerald-vinculin with Q19S mutation (protein, UniProt Q64727 1-1066, looked up, variant Q19S)
chain: MPVFHTRTIESILEPVAQSISHLVIMHEEGEVDGKAIPDLTAPVAAVQAAVSNLVRVGKETVQTTEDQILKRDMPPAFIKVENACTKLVQAAQMLQSDPYSVPARDYLIDGSRGILSGTSDLLLTFDEAEVRKIIRVCKGILEYLTVAEVVETMEDLVTYTKNLGPGMTKMAKMIDERQQELTHQEHRVMLVNSMNTVKELLPVLISAMKIFVTTKNSKNQGIEEALKNRNFTVEKMSAEINEIIRVLQLTSWDEDAWASKDTEAMKRALASIDSKLNQAKGWLRDPNASPGDAGEQAIRQILDEAGKVGELCAGKERREILGTCKMLGQMTDQVADLRARGQGASPVAMQKAQQVSQGLDVLTAKVENAARKLEAMTNSKQSIAKKIDAAQNWLADPNGGPEGEEQIRGALAEARKIAELCDDPKERDDILRSLGEIAALTSKLGDLRRQGKGDSPEARALAKQVATALQNLQTKTNRAVANSRPAKAAVHLEGKIEQAQRWIDNPTVDDRGVGQAAIRGLVAEGHRLANVMMGPYRQDLLAKCDRVDQLTAQLADLAARGEGESPQARALASQLQDSLKDLKAQMQEAMTQEVSDVFSDTTTPIKLLAVAATAPPDAPNREEVFDERAANFENHSGRLGATAEKAAAVGTANKSTVEGIQASVKTARELTPQVISAARILLRNPGNQAAYEHFETMKNQWIDNVEKMTGLVDEAIDTKSLLDASEEAIKKDLDKCKVAMANIQPQMLVAGATSIARRANRILLVAKREVENSEDPKFREAVKAASDELSKTISPMVMDAKAVAGNISDPGLQKSFLDSGYRILGAVAKVREAFQPQEPDFPPPPPDLEQLRLTDELAPPKPPLPEGEVPPPRPPPPEEKDEEFPEQKAGEVINQPMMMAARQLHDEARKWSSKGNDIIAAAKRMALLMAEMSRLVRGGSGTKRALIQCAKDIAKASDEVTRLAKEVAKQCTDKRIRTNLLQVCERIPTISTQLKILSTVKATMLGRTNISDEESEQATEMLVHNAQNLMQSVKETVREAEAASIKIRTDAGFTLRWVRKTPWYQ
modifications: full-length mEmerald
notes: full-length mEmerald-vinculin with Q19S mutation
[1]
  incorporation into talin-rich focal adhesions: incorporated into talin-rich focal adhesions similarly

B2: wild-type VD1: VD1 domain of mouse vinculin; in simulations vinculin head domain 1, residues 1–252 (protein, UniProt Q64727 1-252, looked up, fragment)
chain: MPVFHTRTIESILEPVAQQISHLVIMHEEGEVDGKAIPDLTAPVAAVQAAVSNLVRVGKETVQTTEDQILKRDMPPAFIKVENACTKLVQAAQMLQSDPYSVPARDYLIDGSRGILSGTSDLLLTFDEAEVRKIIRVCKGILEYLTVAEVVETMEDLVTYTKNLGPGMTKMAKMIDERQQELTHQEHRVMLVNSMNTVKELLPVLISAMKIFVTTKNSKNQGIEEALKNRNFTVEKMSAEINEIIRVLQLTS
modifications: VD1 domain
[2]
  melting temperature, Tm: 60 °C
[3]
  oligomeric state in solution: monomeric in solution
[4]
  Kd: 350 nM
[5]
  binding and dissociation kinetics (KD, kon, koff): did not reveal significant differences in the binding or dissociation kinetics
